The target of test [1] is T1, HER2 immunoprecipitated from the membrane fraction of HER2-type breast cancer cells (HER2 solution) (human, UniProt P04626 23-1255, glycosylated; also tested after PNGase F treatment).
T1 construct: Not fractionated by lectin; also called breast cancer cell-derived HER2; unfractionated HER2
As to the kind of experiment: lectin array with immunoprecipitated HER2, with and without PNGase F; confirmed by Western and lectin blotting.

The target of test [2] is T2, HER2 immunoprecipitated from the membrane fraction of cardiomyocytes (human, UniProt P04626 23-1255).
T2 construct: also called cardiomyocyte-derived HER2; myocardial cell-derived HER2
The test can be described thus: lectin blot of immunoprecipitated HER2 after electrophoresis (legend of Fig. 3).

B1: AOL (Aspergillus oryzae lectin) (other, UniProt Q2UNX8 1-311, looked up)
chain: MSTPGAQEVLFRTGIAAVNSTNHLRVYFQDSHGSIRESLYESGWANGTAKNVIAKAKLGTPLAATSKELKNIRVYSLTEDNVLQEAAYDSGSGWYNGALAGAKFTVAPYSRIGSVFLAGTNALQLRIYAQKTDNTIQEYMWNGDGWKEGTNLGVALPGTGIGVTCWRYTDYDGPSIRVWFQTDNLKLVQRAYDPHTGWYKELTTIFDKAPPRCAIAATNFNPGKSSIYMRIYFVNSDNTIWQVCWDHGQGYHDKRTITPVIQGSEIAIISWEGPELRLYFQNGTYVSAISEWTWGKAHGSQLGRRALPPAE
notes: also called biotinylated AOL
On to B1, for which the binding result in test [1] and in test [2] was “binds” each time.

B2: AAL (Aleuria aurantia lectin) (other, UniProt P18891 2-313, looked up)
chain: PTEFLYTSKIAAISWAATGGRQQRVYFQDLNGKIREAQRGGDNPWTGGSSQNVIGEAKLFSPLAAVTWKSAQGIQIRVYCVNKDNILSEFVYDGSKWITGQLGSVGVKVGSNSKLAALQWGGSESAPPNIRVYYQKSNGSGSSIHEYVWSGKWTAGASFGSTVPGTGIGATAIGPGRLRIYYQATDNKIREHCWDSNSWYVGGFSASASAGVSIAAISWGSTPNIRVYWQKGREELYEAAYGGSWNTPGQIKDASRPTPSLPDTFIAANSSGNIDISVFFQASGVSLQQWQWISGKGWSIGAVVPTGTPAGW
notes: also called AAL lectin
Turning to B2, the binding result in test [1] and in test [2] was “binds” throughout.

(Values after patent publication WO2022196697A1 (dated 2022).)
